Several values for one entry are separate records, joined by “and”; a condition that tells them apart may be missing. Identical values can stand only once.
B1: Twinkle (human mitochondrial replicative helicase), mature, aa 43-684, produced in E. coli (enzyme, UniProt Q96RR1 43-684, looked up)
chain: ETLQALDMPVLPVTATEIRQYLRGHGIPFQDGHSCLRALSPFAESSQLKGQTGVTTSFSLFIDKTTGHFLCMTSLAEGSWEDFQASVEGRGDGAREGFLLSKAPEFEDSEEVRRIWNRAIPLWELPDQEEVQLADTMFGLTKVTDDTLKRFSVRYLRPARSLVFPWFSPGGSGLRGLKLLEAKCQGDGVSYEETTIPRPSAYHNLFGLPLISRRDAEVVLTSRELDSLALNQSTGLPTLTLPRGTTCLPPALLPYLEQFRRIVFWLGDDLRSWEAAKLFARKLNPKRCFLVRPGDQQPRPLEALNGGFNLSRILRTALPAWHKSIVSFRQLREEVLGELSNVEQAAGLRWSRFPDLNRILKGHRKGELTVFTGPTGSGKTTFISEYALDLCSQGVNTLWGSFEISNVRLARVMLTQFAEGRLEDQLDKYDHWADRFEDLPLYFMTFHGQQSIRTVIDTMQHAVYVYDICHVIIDNLQFMMGHEQLSTDRIAAQDYIIGVFRKFATDNNCHVTLVIHPRKEDDDKELQTASIFGSAKASQEADNVLILQDRKLVTGPGKRYLQVSKNRFDGDVGVFPLEFNKNSLTFSIPPKNKARLKKIKDDTGPVAKKPSSGKKGATTQNSEICSGQAPTPDQPDTSKRSK
B2: Twinkle (human mitochondrial replicative helicase), aa 30-684, produced in SF9 insect cells (enzyme, UniProt Q96RR1 30-684, looked up)
chain: NLAPGPPRRRYRKETLQALDMPVLPVTATEIRQYLRGHGIPFQDGHSCLRALSPFAESSQLKGQTGVTTSFSLFIDKTTGHFLCMTSLAEGSWEDFQASVEGRGDGAREGFLLSKAPEFEDSEEVRRIWNRAIPLWELPDQEEVQLADTMFGLTKVTDDTLKRFSVRYLRPARSLVFPWFSPGGSGLRGLKLLEAKCQGDGVSYEETTIPRPSAYHNLFGLPLISRRDAEVVLTSRELDSLALNQSTGLPTLTLPRGTTCLPPALLPYLEQFRRIVFWLGDDLRSWEAAKLFARKLNPKRCFLVRPGDQQPRPLEALNGGFNLSRILRTALPAWHKSIVSFRQLREEVLGELSNVEQAAGLRWSRFPDLNRILKGHRKGELTVFTGPTGSGKTTFISEYALDLCSQGVNTLWGSFEISNVRLARVMLTQFAEGRLEDQLDKYDHWADRFEDLPLYFMTFHGQQSIRTVIDTMQHAVYVYDICHVIIDNLQFMMGHEQLSTDRIAAQDYIIGVFRKFATDNNCHVTLVIHPRKEDDDKELQTASIFGSAKASQEADNVLILQDRKLVTGPGKRYLQVSKNRFDGDVGVFPLEFNKNSLTFSIPPKNKARLKKIKDDTGPVAKKPSSGKKGATTQNSEICSGQAPTPDQPDTSKRSK

Legend:
[1] = molecular target: the molecule itself; test: SAXS
[2] = molecular target: the molecule itself; test: negative staining EM

| Protein | stoichiometry N [1] | stoichiometry N [2] |
| --- | --- | --- |
| B1 | 7 | 6 |
| B2 | – | 6 and 7 |

Reference: article PMC4417153 (Nucleic Acids Research, 2015)
